Measurements: the supplement of paper PMC9170038

Tested on: MS2 coat protein
Experiment: apparent KD of MS2 coat protein; higher = weaker reporter binding
Details: Eterna round: R107
Summary of the method: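 Designed RNA switches were transcribed on-chip from Illumina sequencing clusters. SNAP-549-labelled MS2 coat protein was titrated onto them in twofold steps from 0.7 or 1.5 nM to 3 µM in 100 mM Tris-HCl pH 7.5, 80 mM KCl, 4 mM MgCl2, either without or with constant ligand. Apparent KD reflects the per-design median of normalised cluster binding-curve fits.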

[1] = input ligand: theophylline 20 uM
[2] = input ligand: theophylline 2 mM
[3] = input ligand: tryptophan 2.4 mM

Sequence	apparent KD of MS2 coat protein (input ligand: arginine 13.2 mM) [nM]	apparent KD of MS2 coat protein [1] [nM]	apparent KD of MS2 coat protein [2] [nM]	apparent KD of MS2 coat protein (input ligand: none) [nM]	apparent KD of MS2 coat protein [3] [nM]
UUACACAUCUCGGCCGCCACUGGCUUCAAAAUAAUGUGUACAUGAGGAUCACCCAUGUCCGAGCUCAGGACCGGGAGCAAAGAAG [SS Tryp B #14]	21.1	29.2	28.4	–	–
UGUAUGGACUGAAGGAGCGGAUGAUAAUCUGAGGAUCACCCAGGUAAUAAGGCGAAAGCCAUCCAGGUAGGUCGCAGUCCAUACU	40.9	96.9	111	82.9	103
AACAUGAGGAUCACCCAUGUAUGUUCCGAAGGAGCGCCACAUGAGGCAGGUAGGUCGCGGGUACAUGAGGAUCACCCAUGUGUCA [Exclusion Arginine A 3]	56.5	170	128	113	174
ACGCUGAUUGAUUACAAUCAGCGAAAAGAUACCAGUGGGUAAUCCCACCCUUGGCAGCUUAAAUCUGAGGAUCACCCAGGUGGUA [TheoAS 19 #MS2Right #BothOrNeither #AlternativeMS2]	153	382	376	253	728
UAGAUAGAGGGAAGGAGCGCAGUAACAUAACAUGAGGAUCACCCAUGUAAGAAAUUAAUAAUGCAGGUAGGUCGCCCAAGAUGAU [#10 Same State - Arginine B]	12.4	17	15.1	13.6	13.9
AUUCAUGGAAACAUGAGAUAUCCUACCGGUCGAGGACCGGUACGGCCGCCACUCGGUUGGUGGCACAUGAGGAUCACCCAUGUUA [SS Tryp A #12]	77.6	310	378	–	–
UCGGGAACAUGAGGAUCACCCAUGUCAGAAGGAGCGCUGAGAGAAGCAGGUAGGUCGCUGACGUAGGAGCUCUCUUCCUAUACGC [Exclusion - Arginine A]	23.3	40.1	35.4	30.6	25.4
ACUUCGCAUAGGAAAACUAUGUGAAGAAAUCGAGGACCGGUACGGCCGCCACUCGUCCUCAACAUGAGGAUCACCCAUGUAAUAA [Mat - Exclusion - Trytophan A - D5]	21	24.3	23.9	–	–
AUAAUAAUGUCGGCCGCCACUAUAAACAUGAGGAACAUGAGGAUCACCCAUGUAUGAGGAUCACCUAGGACCGGGACUAAUAUUA [AstrosExyTryB#5]	33.9	57.1	52.9	–	–
GUUGGUUUGGGAAGGAGCGGGUAUGUUGUCUACUUGAUCCUAACAUGAGGAUCACCCAUGUCCCAGGUAGGUCGCCCAGGCUUUG [12.aD]	35.7	230	103	139	98.4
AGUAGACACGCGGCCGCCACUUGAGGAUCACCCAAGUGGUGUGUACUUGAAACAAGUGCACAAUCAAGGACCGGGCGUGUCUACA [Omei Tryp B SS D v4]	5.02	8.77	7.77	7.02	13
GAACAGUCGGACAUGAGGAUCACCCAUGUGCGAGGACCGGUACGGCCGCCACUCGACAAGGGCGGUCCCGAAGCGAACAUACGCG [Cecearla]	14.9	43.4	34.4	–	–
GACCGGUUAUAGCGCGAUUGUCUUGUGGAAGGAGCGCAGAGGGCUGCAGGUAGGUCGCCACAUGAGGAUCACCCAUGUCAGGAAA [Biraesge]	28.1	32.2	35.5	19.2	19.7
UCUCGGUCUUUCUUUCUCCGAGAAUAUGAUACCAGUUAGUUUUAUGGCCCUUGGCAGCAUAGAACAUGAGGAUCACCCAUGUGUU [SSThA NP+V+V2 #9 +-Same Structure]	48.1	114	–	–	96.5
AGCGACAUGCAUGAUACCAGCUACAUGAGGAUCACCCAUGUACGUCAGUAAUGACUGUGUAGCCCUUGGCAGCAUAAAGCAUGUC [Exclusion - Theophylline B (Freestyle 17)]	22.8	44.5	–	–	26.5
AAAGGAAGGUAAAAUAAAACUACAUGUGAAGGAGCGCCCGAAAGGGCAGGUAGGUCGCACAUGAGGAUCACCCAUGUCCUUCCAA [ArgEX 6 #SwitchBubble]	206	315	439	319	293
CCCAGUUAUAACAAAGGAAUUAUACUCGAAGGAGCGUCAUAGUAGGCAGGUAGGUCGCGAGACAUGAGGAUCACCCAUGUAGAGA [k,lmullin]	32.1	56.3	49.4	42.3	50
ACACAAUACAUGAGGAUCACCCAUGUAAAACGAGGACCGGUACGGCCGCCACUCGAAUACUGUAAUCCUCGGAAUAUUAAGUGAA [JR_ExcTryptA_Sub002]	28.7	57.1	61.6	–	–
GUCAGUAGAACAGAUACCAGUCAAAGGCUGUGAUCUCAUAACAUGAGGAUCACCCAUGUUGACCCUUGGCAGCUGUGGGCGAGGG [#20 Exclusion-TheophyllineB]	26	77.8	–	–	43.7

Sequence	apparent KD of MS2 coat protein (input ligand: arginine 13.2 mM) [nM]	apparent KD of MS2 coat protein [1] [nM]	apparent KD of MS2 coat protein [2] [nM]	apparent KD of MS2 coat protein (input ligand: none) [nM]	apparent KD of MS2 coat protein [3] [nM]
AAUUGAAACAGAGGUAUAUACGGACAUUACCGAGGACCGGUACGGCCGCCACUCGACCUAAAACAUGAGGAUCACCCAUGUAGCA [theeternabot_exclusion_MS2_Trp_A_20]	12.6	14.2	13.8	–	–
AUUAUAGUUUAUAAGGAAAUUGAAACAGAAGGAGCGUGAGUAAUCACAGGUAGGUCGCUGGUAGUACAUGAGGAUCACCCAUGUU [JR_Nu_SSArginiA_Sub019]	21.9	32.2	26.5	24.1	22.4
ACGGACAUGAGGAUCACCCAUGUGGCCGAAGGAGCGGGAAUUAACCCAGGUAGGUCGCGGAAAUUUUUUAAAUUAUUUUAAUUUU [Same State - Arginine A]	14.4	21.5	18.7	17.1	17.3
AGCACUGUGACGGCCGCCACUACAUAAGAUGGGUGGUCAGGUUCAUUACAUGAGGAUCACCCAUGUAGGACCGGGUCUCAGUGCA [Omei Trp Exc B A v10]	7.97	16.5	10.9	9.29	7.71
CCUUUGUAGCGAAGGAGCGCGUGACUUAGCUCAUGUAAACAUGAGGAUCACCCAUGUGACACGCAGGUAGGUCGCGCUAUGAAGG [Arg B Ex t3]	22.2	28.7	23.5	22.3	21.9
UGUACUAUGUGAAGGAGCGAGAAGGAGCGAACAUGAGGAUCACCCAUGUACAGGUAGGUCGCUCAGGUAGGUCGCACAUAGUACU [ArgBS - Double aptamer]	13.2	14.6	14.4	9.94	11.7
UAAUAGGUCCAGAACGUACCAGGUGAUCAACGAGGACCGGUACGGCCGCCACUCGAAACAUGAGGAUCACCCAUGUAACUGGACC [|T'-M'-Trp-Ms2|_Design 2_ML]	173	95.3	518	72.9	61.4
UACAUGAGGAUCACCCAUGUCUGAACUGAAGGAGCGCUAAACAAGGCAGGUAGGUCGCGGAAUUUUGUGUGCAUAUGCAUAUGGG [9.K]	23.6	46.7	36.5	30.6	31.1
GCCGGACUUUCGGCCGCCACUGAGAGAGUCGUGUGAACAUGAGGAUCACCCAUGUAAUAUAUAUACAGGACCGGGAGGGUUGGGC [4.R]	10.5	15.1	14.4	13.7	12.4
UCAUAAGUACCGGUCCUCAGAUCCUCAUGACGAGGACCGGUACGGCCGCCACUCGAAACAUGAGGAUCACCCAUGUAAUAACAUU [Brourdmod23]	19.5	28.4	26.1	–	–
UCGCUCUGGGUGAAAUCCGGAGAUGUGGAAGGAGCGCUCGAAAGAGCAGGUAGGUCGCCAACGGACAUGAGGAUCACCCAUGUAC [Same State - Arginine A (Freestyle 20)]	31	50	75.3	29.6	38.3
GCAUGCGAUACCGAUACCAGCUACUCCAUGGCGCUCCACAUGAGGAUCACCCAUGUAAAUAGCCCUUGGCAGCGGUAUUGAGAUG [Anrabegema]	16.4	53.9	–	–	21
UCAGUGGGUUCGGCCGCCACUUGAGUGAUGGUGCCUCAAUAAGUCUACAUGAGGAUCACCCAUGUAAGGACCGGGAAUUUUAUGG [theeternabot_exclusion_MS2_Trp_B_19]	33.3	59.1	43.2	–	–
GCACCAGGUACGGAUACCAGCUGCCCGAGAUACAUGAGGAUCACCCAUGUGACCUGGUUUAGCCCUUGGCAGCUGUACCUGGUGC [#14 Same State - Theophylline B]	13	13.8	–	–	14.3
UUUAACAAGAACGUCCUGAGUGACAAGCUACGAGGACCGGUACGGCCGCCACUCGUACCAAAACAUGAGGAUCACCCAUGUUAAA [theeternabot_exclusion_MS2_Trp_A_44]	13.4	19.3	21.1	–	–
CUCCCGUGGUCGGCCGCCACUGGAGGCUUUGCGCGACAUGAGGAUCACCCAUGUGUGCCCGGCGUCAGGACCGGGAUCGCGUGAG [#1 Same State - Tryptophan B Attempt #13 (HarryS)]	11.7	16	17.7	14.6	11.5
UGUCAUGGAAACAUGACUGGUUCUACCGGUCGAGGACCGGUACGGCCGCCACUCGAUUGGUGGCACAUGAGGAUCACCCAUGUUA [SS Tryp A #14]	26.2	51.9	33.9	–	–
AAACGUUGCUGCGAUACCAGACAUGAGGAUCACCCAUGUACCAAGGUAAAGAAAUAACGUGUCCCUUGGCAGCGCAGCAACGAAA [MAT - Exclusion Theophlline B - Mod of Eli - D12]	8.7	16.1	143	10.2	10.6
UCGGGCAGAGCGGCCGCCACUGUUUGGCGUGCGGAUGAAGGAACAUGAGGAUCACCCAUGUUGAUUAGGACCGGGCUUGCGGAGA [kklmullin]	12.6	27	17.4	17.1	16.7
